Experimental data taken from patent US20090291081A1 (AbbVie / Abbott, published 2009).

T1: human IL-1α (human, UniProt P01583 113-271)
T1 sequence (looked up): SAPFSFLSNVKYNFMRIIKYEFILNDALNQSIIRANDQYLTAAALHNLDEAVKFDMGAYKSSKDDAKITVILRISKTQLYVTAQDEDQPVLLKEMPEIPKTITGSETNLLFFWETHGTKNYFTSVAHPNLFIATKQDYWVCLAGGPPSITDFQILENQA


Molecular target: T1, human IL-1α
Test: cell-based or functional assay

Binder	ND50 [nM]
ABT1-122-750x (other) VL: DIQMTQSPSSLSASVGDRVAITCSASQHIWTEISWYQQKPGKAPKLLIYGSASRQKGVPSRFSGSGSGTDFTLTISSLQPEDFATYYCKQFAYFPNTFGQGTKVEIKR	0.713
ABT1-149 (other) VL: DIQMTQSPSSLSASVGDRVTITCRASQSISSYLNWYQQKPGKAPKLLIGGLSGLQSGVPSRFSGSGSGTDFTLTISSLQPEDFATYYCMQWWRWPSTFGQGTKVEIKRAAAEQKLISEED	100
ABT1-141-29 (other) VL: DIQVTQSPSSLSASVGDRVTITCRASQWIQKQLAWYQLKPGKAPKLLIYSSSYLQSGVPSRFSGSGSGTDFTLTISSLQPEDFATYYCQQHLRVPFTFGQGTKVEIKR	20
ABT1-141-32 (other) VL: DIQMTQSPSSLSASVGDRITITCRASQWIQKQLAWYQLKPGKAPKLLIYSSSYLQSGVPSRFSGSGSGTDFTLTISSLQPEDFATYYCQQHLRVPMTFGQGTKVEIKR	10
ABT1-141-31 (other) VL: DIQMTQSPSSLSASVGDRVTITCRASQWIQKQLAWYQQKPGKAPKLLIYSSSWLQSGVPSRFSGSGSGTDFTLTISSLQPEDFATYYCQQHLRVPMTFGQGTKVEIKR	2
ABT1-141-562 (other) VL: DIQMTQSPSSLSASVGDRVTITCRANQWIQKQLAWYQQKPGKAPKLLIYSSSWLQSGVPSRFSGSGSGTDFTLTISSLQPEDFATYYCQQHLRVPMTFGQGTKVEIKR	> 10
ABT1-141-33 (other) VL: DIQMTQSPSSLSASVGDRVTITCRASQWIQKQLAWYQLKPGKAPKLLIYSSSWLQSGVPSRFSGSGSGTDFTLTISSLQPEDFATYYCQQHLRVPMTFGQGTKVEIKR	3
ABT1-99 (other) VH: EVQLLESGGGLVQPGGSLRLSCAASGFTFGKYSMTWVRQAPGKGLEWVSVIDPWGHYTYYADSVKGRFTISRDNSKNTLYLQMNSLRAEDTAVYYCAKSVDATLLRRYFDYWGQGTLVTVSS	500
ABT1-95-51 (other) VL: DIQMTQSPSSLSASVGDRVTITCRASQPIIRNLRWYQQKPGKAPKLLIYSSSYLEPGVPSRFSGSGSGTDFTLTISSLQPEDFATYHCQQGYRWPVTFGQGTKVEIKR	615
ABT1-95-A5 (other) VL: DIQMTQSPSSLSASVGDRVTITCRASRTPVRNLRWYQQKPGKAPKLLIYSRSFLEPGVPSRFSGSGSGTDFTLTISSLQPEDFATYHCLQGYRWPPTFGQGTKVEIKR	0.016
ABT1-95-136 (other) VL: DIQMTQSPSSLSASVGDRVTITCRASQPIVRNLRWYQQKPGKAPKLLIYSSSYLEPGVPSRFSGSGSGTDFTLTISSLHPEDLATYHCQQGYGWPVTFGQGTKVEIKR	0.1
ABT1-95-176 (other) VL: DIQMTQSPSSLSASVGDRVTITCRASRPIVRNLRWYQQKPGKAPKLLIYAVSYLEPGVPSRFSGSGSGTDFTLTISSLQPEDFATYHCRQGYRWPVTFGQGTKVEIKR	0.027
ABT1-95-162 (other) VL: DIQMTQSPSSLSASVGDRVTITCRASKPIVRNLRWYQQKPGKAPKLLIYSSSYLEPGVPSRFSGSGSGTDFTLTISSLQPEDFATYHCQQGYRWPVTFGQGTKVEIKR	0.186
ABT1-95-135 (other) VL: DIQMTQSPSSLSASVGDRVTITCRASQPIVRNLRWYQQKPGKAPKLLIYSSSYLEPGVPSRFSGSGSGTDFTLTISSLQPEDFATYHCQQGYSWPVTFGQGTKVEIKR	0.1
ABT1-95-A6 (other) VL: DIQMTQSPSSLSASVGDRVTITCRASKPGVRNMRWYQQKPGKAPKLLIYAKSYLEPGVPSRFSGSGSGTDFTLTISSLQPEDFATYHCKQGYRWPVQFGQGTKVEIKR	0.024
ABT1-95-178 (other) VL: DIQMTQSPSSLSASVGDRVTITCRASQPIVRNLRWYQQKPGKAPKLLIYSVSYLEPGVPSRFSGSGSGTDFTLTISSLQPEDFATYHCRQGYRWPVTFGQGTKVEIKR	0.004
ABT1-95-171 (other) VL: DIQMTQSPSSLSASVGDRVTITCRASRPIVRNLRWYQQKPGKAPKLLIYSVSYLEPGVPSRFSGSGSGTDFTLTISSLQPEDFATYHCQQGYRWPVTFGQGTKVEIKR	0.059
ABT1-95-166 (other) VL: DIQMTQSPSSLSASVGDRVTITCRASQPIVRNLRWYQQKPGKAPKLLIYSKSYLEPGVPSRFSGSGSGTDFTLTISSLQPEDFATYHCQQGYRWPVTFGQGTKVEIKR	0.035

Binder	ND50 [nM]
ABT1-95-170 (other) VL: DIQMTQSPSSLSASVGDRVTITCRASRPIVRNLRWYQQKPGKAPKLLIYASSYLEPGVPSRFSGSGSGTDFTLTISSLQPEDFATYHCQQGYRWPVTFGQGTKVEIKR	0.2
ABT1-95-134 (other) VL: DIQMTQSPSSLSASVGDRVTITCRASQPIVRNLRWYQQKPGKAPKLLIYSSSYLEPGVPSRFSGSGSGTDFTLTISSLQPEDFATYHCAQGYRWPVTFGQGTKVEIKR	0.075
ABT1-95-A3 (other) VL: DIQMTQSPSSLSASVGDRVTITCRASKPGVRNMRWYQQKPGKAPKLLIYSVSYLEPGVPSRFSGSGSGTDFTLTISSLQPEDFATYHCLQGYRWPPTFGQGTKVEIKR	0.011
ABT1-95-133 (other) VL: DIQMTQSPSSLSASVGDRVTITCRASQPIVRNLRWYQQKPGKAPKLLIYSSSYLEPGVPSRFSGSGSGTDFTLTISSLQPEDFATYHCRQGYRWPVTFGQGTKVEIKR	0.05
ABT1-95-175 (other) VL: DIQMTQSPSSLSASVGDRVTITCRASRPIVRNLRWYQQKPGKAPKLLIYASSYLEPGVPSRFSGSGSGTDFTLTISSLQPEDFATYHCRQGYRWPVTFGQGTKVEIKR	0.017
ABT1-95-168 (other) VL: DIQMTQSPSSLSASVGDRVTITCRASQPIVRNLRWYQQKPGKAPKLLIYSSSFLEPGVPSRFSGSGSGTDFTLTISSLQPEDFATYHCQQGYRWPVTFGQGTKVEIKR	2.3
ABT1-95-173 (other) VL: DIQMTQSPSSLSASVGDRVTISCRASRPIVRNLRWYQQKPGKAPKLLIYSSSYLEPGVPSRFSGSGSGTDFTLTISSLQPEDFATYHCRQGYRWPVTFGQGTKVEIKR	0.151
ABT1-95-184 (other) VL: DIQMTQSPSSLSASVGDRVTITCRASRTPVRNLRWYQQKPGKAPKLLIYSRSYLEPGVPSRFSGSGSGTDFTLTISSLQPEDFATYHCLQGYRWPPTFGQGTKVEIKR	0.006
ABT1-95-167 (other) VL: DIQMTQSPSSLSASVGDRVTITCRASQPIVRNLRWYQQKPGKAPKLLIYSRSYLEPGVPSRFSGSGSGADFTLTISSLQPEDFATYHCQQGYRWPVTFGQGTKVEIKR	0.469
ABT1-95-163 (other) VL: DIQMTQSPSSLSASVGDRVTITCRASRPIVRNLRWYQQKPGKAPKLLIYSSSYLEPGVPSRFSGSGSGTDFTLTISSLQPEDFATYHCQQGYRWPVTFGQGTKVEIKR	0.05
ABT1-95-165 (other) VL: DIQMTQSPSSLSASVGDRVTITCRASQPIVRNMRWYQQKPGKAPKLLIYSSSYLEPGVPSRFSGSGSGTDFTLTISSLQPEDFATYHCQQGYRWPVTFGQGTKVEIKR	0.391
ABT1-95-179 (other) VL: DIQMTQSPSSLSASVGDRVTITCRASQPIVRNLRWYQQKPGKAPKLLIYSSSYLEPGVPSRFSGSGSGTDFTLTISSLQPEDFATYHCRQGYRWPPTFGQGTKVEIKR	0.022
ABT1-95-169 (other) VL: DIQMTQSPSSLSASVGDRVTITCRASQPIVRNLRWYQQKPGKAPKLLIYAVSYLEPGVPSRFSGSGSGTDFTLTISSLQPEDFATYHCQQGYRWPVTFGQGTKVEIKR	0.093
ABT1-95-172 (other) VL: DIQMTQSPSSLSASVGDRVTITCRASRPIVRNLRWYQQKPGKAPKLLIYAVSYLEPGVPSRFSGSGSGTDFTLTISSLQPEDFATYHCQQGYRWPVTFGQGTKVEIKR	0.171
ABT1-95-137 (other) VL: DIQMTQSPSSLSASVGDRVTITCRASQPIVRNLRWYQQKPGKAPKLLIYSSSYLEPGVPSRFSGSGSGTDFTLTISSLQPEDFATYHCQQGYLWPVTFGQGTKVEIKR	0.09
ABT1-95-164 (other) VL: DIQMTQSPSSLSASVGDRVTITCRASQPGVRNLRWYQQKPGKAPKLLIYSSSYLEPGVPSRFSGSGSGTDFTLTISSLQPEDFATYHCQQGYRWPVTFGQGTKVEIKR	0.15
ABT1-97 (other) VH: EVQLLESGGGLVQPGGSLRLSCAASGFTFWEYDMYWVRQAPGKGLEWVSRISGSGRYTYYADSVKGRFTISRDNSKNTLYLQMNSLRAEDTAVYYCAKRSLTRPSQFDYWGQGTLVTVSS	3000
ABT1-67 (other) VL: DIQMTQSPSSLSASVGDRVTITCRASQSIHRSLRWYQQKPGKAPKLLIYHASHLQSGVPSRFSGSGSGTDFTLTISSLQPEDFATYYCQQYKRRPSTFGQGTKVEIKR	0.044
